{"source": "patent US20170052184A1", "about": "(published 2017)", "key": {"[1]": {"molecular_target": "T1, Mut1T110N biotin labeled HCV core peptide (hepatitis C virus, biotin labeled)", "T1 peptide": "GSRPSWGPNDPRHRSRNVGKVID", "test": "EIA; Ab 15.625 ng/mL captured on anti-mouse Fc; bt-peptide 500 ng/mL"}, "[2]": {"molecular_target": "T2, C113T109N biotin labeled HCV core peptide (hepatitis C virus, also: biotin labeled, position not given here)", "T2 peptide": "RGSRPSWGPND", "test": "EIA; Ab 15.625 ng/mL captured on anti-mouse Fc; bt-peptide 500 ng/mL"}, "[3]": {"molecular_target": "T3, Mut6T110S biotin labeled HCV core peptide (hepatitis C virus)", "test": "EIA; Ab 15.625 ng/mL captured on anti-mouse Fc; bt-peptide 500 ng/mL"}, "[4]": {"molecular_target": "T4, WT1STHV biotin labeled HCV core peptide (hepatitis C virus, biotin labeled)", "T4 peptide": "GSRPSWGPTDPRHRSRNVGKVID", "test": "EIA; Ab 15.625 ng/mL captured on anti-mouse Fc; bt-peptide 500 ng/mL"}, "[5]": {"molecular_target": "T5, C113WT biotin labeled HCV core peptide (hepatitis C virus, also: biotin labeled, position not given here)", "T5 peptide": "RGSRPSWGPTD", "test": "EIA; Ab 15.625 ng/mL captured on anti-mouse Fc; bt-peptide 500 ng/mL"}, "[6]": {"molecular_target": "T2, C113T109N biotin labeled HCV core …", "test": "EIA; Ab 2000 ng/mL captured on anti-mouse Fc; bt-peptide 500 ng/mL"}, "[7]": {"molecular_target": "T3, Mut6T110S biotin labeled HCV core …", "test": "EIA; Ab 2000 ng/mL captured on anti-mouse Fc; bt-peptide 500 ng/mL"}, "[8]": {"molecular_target": "T4, WT1STHV biotin labeled HCV core peptide", "test": "EIA; Ab 2000 ng/mL captured on anti-mouse Fc; bt-peptide 500 ng/mL"}, "[9]": {"molecular_target": "T1, Mut1T110N biotin labeled HCV core …", "test": "EIA; Ab 500 ng/mL captured on anti-mouse Fc; bt-peptide 500 ng/mL"}, "[10]": {"molecular_target": "T2, C113T109N biotin labeled HCV core …", "test": "EIA; Ab 500 ng/mL captured on anti-mouse Fc; bt-peptide 500 ng/mL"}, "[11]": {"molecular_target": "T3, Mut6T110S biotin labeled HCV core …", "test": "EIA; Ab 500 ng/mL captured on anti-mouse Fc; bt-peptide 500 ng/mL"}, "[12]": {"molecular_target": "T4, WT1STHV biotin labeled HCV core peptide", "test": "EIA; Ab 500 ng/mL captured on anti-mouse Fc; bt-peptide 500 ng/mL"}, "[13]": {"molecular_target": "T5, C113WT biotin labeled HCV core peptide", "test": "EIA; Ab 500 ng/mL captured on anti-mouse Fc; bt-peptide 500 ng/mL"}, "[14]": {"molecular_target": "T1, Mut1T110N biotin labeled HCV core …", "test": "EIA; Ab 3.906 ng/mL captured on anti-mouse Fc; bt-peptide 500 ng/mL"}, "[15]": {"molecular_target": "T2, C113T109N biotin labeled HCV core …", "test": "EIA; Ab 3.906 ng/mL captured on anti-mouse Fc; bt-peptide 500 ng/mL"}, "[16]": {"molecular_target": "T3, Mut6T110S biotin labeled HCV core …", "test": "EIA; Ab 3.906 ng/mL captured on anti-mouse Fc; bt-peptide 500 ng/mL"}, "[17]": {"molecular_target": "T4, WT1STHV biotin labeled HCV core peptide", "test": "EIA; Ab 3.906 ng/mL captured on anti-mouse Fc; bt-peptide 500 ng/mL"}, "[18]": {"molecular_target": "T5, C113WT biotin labeled HCV core peptide", "test": "EIA; Ab 3.906 ng/mL captured on anti-mouse Fc; bt-peptide 500 ng/mL"}, "[19]": {"molecular_target": "T1, Mut1T110N biotin labeled HCV core …", "test": "EIA; Ab 1.953 ng/mL captured on anti-mouse Fc; bt-peptide 500 ng/mL"}, "[20]": {"molecular_target": "T2, C113T109N biotin labeled HCV core …", "test": "EIA; Ab 1.953 ng/mL captured on anti-mouse Fc; bt-peptide 500 ng/mL"}, "[21]": {"molecular_target": "T3, Mut6T110S biotin labeled HCV core …", "test": "EIA; Ab 1.953 ng/mL captured on anti-mouse Fc; bt-peptide 500 ng/mL"}, "[22]": {"molecular_target": "T4, WT1STHV biotin labeled HCV core peptide", "test": "EIA; Ab 1.953 ng/mL captured on anti-mouse Fc; bt-peptide 500 ng/mL"}, "[23]": {"molecular_target": "T5, C113WT biotin labeled HCV core peptide", "test": "EIA; Ab 1.953 ng/mL captured on anti-mouse Fc; bt-peptide 500 ng/mL"}, "[24]": {"molecular_target": "T2, C113T109N biotin labeled HCV core …", "test": "EIA; Ab 31.25 ng/mL captured on anti-mouse Fc; bt-peptide 500 ng/mL"}, "[25]": {"molecular_target": "T3, Mut6T110S biotin labeled HCV core …", "test": "EIA; Ab 31.25 ng/mL captured on anti-mouse Fc; bt-peptide 500 ng/mL"}, "[26]": {"molecular_target": "T4, WT1STHV biotin labeled HCV core peptide", "test": "EIA; Ab 31.25 ng/mL captured on anti-mouse Fc; bt-peptide 500 ng/mL"}, "[27]": {"molecular_target": "T5, C113WT biotin labeled HCV core peptide", "test": "EIA; Ab 31.25 ng/mL captured on anti-mouse Fc; bt-peptide 500 ng/mL"}}, "note": "Ends that are not written are not given here."}
{"binder": "HCV Neo4 monoclonal antibody (antibody, V domains shown) VH: QIQLKESGPAVIKPSQSLSLTCIVSGFSITSSVYCWQWIRQPPGKGLEWMGRICYDGSVDYSPSITSRGTISRDTSLNKVFFQLSSVTNEDTAMYYCSRENHIDYYDTTYPSFDVWGAGTTVTVSS VL: DIVLTQSPASLIVSLGQRATISCRASKSVNEYGYTYMHWYQQKPGLPPKLLIYLASNLDSGVPARFSGSGSGTDFTLNIHPVEEEDAATYYCQHSRELPYTFGGGTKLEIKR", "values": [{"measurement": "signal at 492 nm", "setting": "[1]", "value": 0.0771, "unit": "OD 492 nm"}, {"measurement": "signal at 492 nm", "setting": "[2]", "value": 0.0736, "unit": "OD 492 nm"}, {"measurement": "signal at 492 nm", "setting": "[3]", "value": 0.25, "unit": "OD 492 nm"}, {"measurement": "signal at 492 nm", "setting": "[4]", "value": 1.42, "unit": "OD 492 nm"}, {"measurement": "signal at 492 nm", "setting": "[5]", "value": 0.0697, "unit": "OD 492 nm"}, {"measurement": "signal at 492 nm", "setting": "[6]", "value": 0.059, "unit": "OD 492 nm"}, {"measurement": "signal at 492 nm", "setting": "[7]", "value": 1.17, "unit": "OD 492 nm"}, {"measurement": "signal at 492 nm", "setting": "[8]", "value": 1.9, "unit": "OD 492 nm"}, {"measurement": "signal at 492 nm", "setting": "[9]", "value": 0.065, "unit": "OD 492 nm"}, {"measurement": "signal at 492 nm", "setting": "[10]", "value": 0.0803, "unit": "OD 492 nm"}, {"measurement": "signal at 492 nm", "setting": "[11]", "value": 1.17, "unit": "OD 492 nm"}, {"measurement": "signal at 492 nm", "setting": "[12]", "value": 1.91, "unit": "OD 492 nm"}, {"measurement": "signal at 492 nm", "setting": "[13]", "value": 0.0561, "unit": "OD 492 nm"}, {"measurement": "signal at 492 nm", "setting": "[14]", "value": 0.0719, "unit": "OD 492 nm"}, {"measurement": "signal at 492 nm", "setting": "[15]", "value": 0.0717, "unit": "OD 492 nm"}, {"measurement": "signal at 492 nm", "setting": "[16]", "value": 0.0847, "unit": "OD 492 nm"}, {"measurement": "signal at 492 nm", "setting": "[17]", "value": 0.669, "unit": "OD 492 nm"}, {"measurement": "signal at 492 nm", "setting": "[18]", "value": 0.0694, "unit": "OD 492 nm"}, {"measurement": "signal at 492 nm", "setting": "[19]", "value": 0.0728, "unit": "OD 492 nm"}, {"measurement": "signal at 492 nm", "setting": "[20]", "value": 0.0853, "unit": "OD 492 nm"}, {"measurement": "signal at 492 nm", "setting": "[21]", "value": 0.0717, "unit": "OD 492 nm"}, {"measurement": "signal at 492 nm", "setting": "[22]", "value": 0.409, "unit": "OD 492 nm"}, {"measurement": "signal at 492 nm", "setting": "[23]", "value": 0.0765, "unit": "OD 492 nm"}, {"measurement": "signal at 492 nm", "setting": "[24]", "value": 0.0815, "unit": "OD 492 nm"}, {"measurement": "signal at 492 nm", "setting": "[25]", "value": 0.48, "unit": "OD 492 nm"}, {"measurement": "signal at 492 nm", "setting": "[26]", "value": 1.67, "unit": "OD 492 nm"}, {"measurement": "signal at 492 nm", "setting": "[27]", "value": 0.0622, "unit": "OD 492 nm"}]}
